Measured values as given in patent US6521741.

Target: TLHL

B1: tobacco etch virus (TEV) protease (protein)
chain: GESLFKGPRDYNPISSTICHLTNESDGHTTSLYGIGFGPFIITNKHLFRRNNGTLLVQSLHGVFKVKNTTTLQQHLIDGRDMIIIRMPKDFPPFPQKLKFREPQREERICLVTTNFQTKSMSSMVSDTSCTFPSSDGIFWKHWIQTKDGQCGSPLVSTRDGFIVGIHSASNFTNTNNYFTSVPKNFMELLTNQEAQQWVSGWRLNADSVLWGGHKVFMSKPEEPFQPVKEATQLMNELVYSQ
proteolytic cleavage seen on SDS-PAGE: Incubation of TLHL with the TEV protease in PBS at room temperature or at 4 °C produced therefore, a 19kD band on an SDS-PAGE gel
